The Kd is the constant that tells how readily two partners part at equilibrium.

Experimental findings from PMC9833669 are described below.

This experiment has as its target recombinant extracellular domain of the human AXL protein (tyrosine protein kinase receptor UFO) (human) (UniProt P30530). As to the kind of experiment: BLI. A general note: Biolayer interferometry detects binding as a change in optical thickness at a sensor tip.

As for “GST-VP1u^(1-227aa) (glutathione S-transferase fused to the B19V VP1 unique region) (from UniProt Q9PZT0 1-227) (domain or fragment)”, the Kd stood at 103 nM.
